Data published in patent US20130209489A1 (Amgen, published 2013).
Where a chain is given by its changes, count along the chain named.

B1: anti-myostatin antibody 12A5-1 (antibody, V domains shown)
VH: EVQLVESGGGLVQPGGSLRLSCAASGFTFSNYWMNWVRQAPGKGLEWVAQIRLKSDNYATHYAESVKGRFTISRDNAKNSLYLQMNSLRAEDTAVYYCARGLDYWGQGTTVTVSS
VL: DIQMTQSPSSLSASVGDRVTITCKASQDINKYVAWYQQKPGKAPKLLIYYTSTLQPGVPSRFSGSGSGTDFTFTISSLQPEDIATYYCLQYDNLLYTFGQGTKLEIK
B2: anti-myostatin antibody 12A5-10 (antibody, V domains shown)
VH: B1 VH with S30R, M34C, A99T, R100E
VL: B1 VL with L94K
B3: anti-myostatin antibody 12A5-12 (antibody, V domains shown)
VH: B1 VH with M34L, A99T, R100E
VL: B1 VL with T53W
B4: anti-myostatin antibody 12A5-6 (antibody, V domains shown)
VH: B1 VH with N31R, A99T, R100E
VL: B1 VL with T53F, N93A
B5: anti-myostatin antibody 12A5-8 (antibody, V domains shown)
VH: B1 VH with S30R, M34C, A99T, R100E
VL: B1 VL with S52K
B6: anti-myostatin antibody 12A5-3 (antibody, V domains shown)
VH: B1 VH with M34C, A99T, R100E
VL: B1 VL with T53F
B7: anti-myostatin antibody 12A5-9 (antibody, V domains shown)
VH: B1 VH with S30R, M34C, A99T, R100E
VL: B1 VL with S52R
B8: anti-myostatin antibody 12A5-18 (antibody, V domains shown)
VH: B1 VH with S30R, M34C, A99T, R100E
VL: B1 VL with T53H

biological target: mature human myostatin (human, UniProt O14793 267-375); assay: cell-based or functional assay

First: B1
Second: B2
The “IC50 (nM), C2C12/pMARE luciferase reporter cell myostatin activity assay” value of the first is higher: 473 nM for the first, 3.08 nM for the second.

Compared with B3, B4 is higher in “IC50 (nM), C2C12/pMARE luciferase reporter cell myostatin activity assay” value: 1.45 nM for the first, 1.64 nM for the second.

Compared with B5, B6 is lower in “IC50 (nM), C2C12/pMARE luciferase reporter cell myostatin activity assay” value: 4.96 nM for the first, 2.53 nM for the second.

Compared with B7, B8 is lower in “IC50 (nM), C2C12/pMARE luciferase reporter cell myostatin activity assay” value: 3.98 nM for the first, 1.45 nM for the second.
